The results in this text go back to publication PMC5018819 (Scientific Reports, 2016).

Substrate in series [1]: NCCO
The series is described as follows: kinetic analysis of recombinant enzyme (substrate saturation). In kind it is biochemical, P. falciparum. To be noted: Etn varied, ATP constant, pH 7.8. The protocol: (§1) A continuous spectrophotometric 96-well plate assay was established for CK and EK activity based on an assay described. […] The reaction was initiated by addition of enzyme or substrate, as appropriate, and the rate of reaction was monitored by following the decrease in absorbance at 341 nm for 10 min at room temperature using a Thermo Multiska spectrophotometer. Experiments were carried out to ensure that coupling enzymes were not rate-limiting under any of the conditions used and control experiments lacking substrates and/or enzyme were carried out to correct for any background rate.
(§2) One substrate was held constant at the concentration specified above while the second substrate was varied. Any ATPase activity was controlled for and subtracted from the rates (PfEK only). Curves were plotted and Km and Vmax values estimated using Grafit 5 (Erithacus Software Ltd).

Substrate in series [2]: Nc1ncnc2c1ncn2[C@@H]1O[C@H](COP(=O)(O)OP(=O)(O)OP(=O)(O)O)[C@@H](O)[C@H]1O
The description is as above. Type of series: biochemical, P. falciparum. To be noted: ATP varied, pH 7.8. How it is done:
as §1, §2

Substrate in series [3]: C[N+](C)(C)CCO
The series is described as follows: purified protein, by the assay type. To be noted: other: PfCK, Cho varied, ATP constant; pH 7.8.

B1: PfEK (Plasmodium falciparum 3D7) (protein)
chain: EYQLREIDESEKEITQQRKKNSVTTKNFDNLSNSNSQITEMTNEQGVIPLREKDLTINVGDNRNLKVEEFMTNFISNVFENKNALFLYCKYVLLFYGKELLNENNVESLNFEIIKGGITNILVKVEDNIHQNKYLIRLYGPKTSEIINREREKLISNILCDKNISKKIYVFFPNGRIEEFKDGYALSREDIKNKDFQKEIAENLRILHDIQLDDTIYKKLQALQNIQGNRSSFLWSTLWKYFNTLKEERQKKYSFNPKAYILKLIDFDMLESIITEIQELCCKKNSPVVLCHCDLLSSNIIKTEGSSISFIDFEYSCPMERAYDIANHFNEYAGFNCEWDLTPNRSEEYHFIKHYLKTDDEQLINQLIDEIQPFYVCSHIVWGLWALLQGLHSVIDFDFINYGMTRLTAAFSVKFRSKL
B1: in series [1] (other: PfEK), the Km turned out to be 80 ± 20 µM, the Vmax is 0.03 µmol/min/mg, the kcat worked out at 0.025 s⁻¹ and the kcat/Km was determined as 310 M⁻¹ s⁻¹. For the same protein, the Km in series [2] (other: PfEK) came to 70 ± 30 µM.

B2: PfCK (Plasmodium falciparum 3D7) (protein)
chain: MESKICDPIGLDKNKFRKVEEENEENSKIVENGQMTYNDDLEMFTTIQLNQEIDIRKNPFPLHMINQKNDIPLCAQEFSKLTDPLYIKKICLEKVHDWSRCNEDDVCVNQILSGLTNQLFEVSIKEDTAIEYRITRRHVLFRIYGKDVDALYNPLSEFEVYKTMSKYRIAPLLLNTFDGGRIEEWLYGDPLSIDDLKNKSILVGIANVLGKFHTLSRKRHLPEHWDKTPCVFKMMDRWRLAVSNYKNLDKVTLDINKYIQESHKFLKFIKIYTQIENIANDIVFCHNDLQENNIMNTNKCLRLIDFEYSGYNFLSADIANFFIETTIDYSYNAYPFFIINKKNYISYESRILFVTTYLSKYLDDSTAASDQDIIDQFLEAIEVQALGLHLIWAFWSIIRGYQTKSYNEFDFFLYAKERLKMYDEQKQYLMSKNIIKDYDD
notes: made in house
For B2, in series [3], the Km stood at 210 ± 30 µM, the Vmax stood at 3.3 µmol/min/mg, the kcat was determined as 2.9 s⁻¹ and the kcat/Km turned out to be 13800 M⁻¹ s⁻¹. Further, in series [1] (other: PfCK), the Michaelis-Menten constant (Km) is 3300 ± 300 µM, the Vmax was 1.7 µmol/min/mg, the kcat is 1.5 s⁻¹ and the specificity constant (kcat/Km) is 450 M⁻¹ s⁻¹. Moreover, the Km in series [2] (other: PfCK) was 130 ± 10 µM.
